Experimental data reported in article PMC8751750, “Effect of using different co-ligands during ^99mTc-labeling of J18 peptide on SK-MES-1 cell binding and tumor targeting” (Iranian Journal of Basic Medical Sciences, 2021).
“Also recorded” adds a separate entry of the source. Peptide text beside a SMILES is read from it.

Assays:
A-549 cells = settings: previously reported, listed as 99mTc-HYNIC-(Ser)3-J18 (tricine/EDDA); cited from earlier work
Description: Table 1 Overview of affinity binding ^99mTc-HYNIC-(Ser)3-J18 on SK-MES-1 vs A-549 cell line | column: A-549 / Tricine; A-549 / tricine/EDDA

SK-MES-1 cells [1] = test: Saturation binding assay on SK-MES-1 cells; parameters: species or system human
Description: The affinities of (^99mTc) Tc-HYNIC-peptides were determined utilizing a saturation binding experiment with cultivated cells in vitro for determination of the dissociation constant as KD and the number of binding sites per cell (Bmax). SK-MES-1 cells were incubated for 2 hr at 37 °C with increasing concentrations of (^99mTc) Tc- HYNIC- peptides (0.1, 0.5, 1, 2.5, 5, 25, and 50 nM). One dish served as a blocking sample, and it was immersed in a blocking solution containing a 500-fold excess of the non-labeled peptide. For each concentration, three dishes were utilized. Following incubation, the media was withdrawn, and the cells were trypsinized and collected for Gamma counter activity measurement. Prism 5 software (Ver. 5.0) was used to examine the particular binding data using nonlinear regression.

SK-MES-1 cells [2] = test: Specific binding (blocking with unlabeled peptide) on SK-MES-1 cells; parameters: species or system human; settings: listed as 99mTc-peptide 2
Description: (§1) The in vitro receptor binding of the^ 99mTc-labeled peptide was evaluated using SK-MES-1 a human lung squamous cell carcinoma, SKOV-3 human ovarian carcinoma, and A-549 human lung adenocarcinoma epithelial and MCF-7 human breast cancer cell lines. All cell lines were kept at 37 °C in a 5% CO2 incubator and were maintained in Dulbecco’s DMEM-high glucose supplemented with 10% FBS. Cells were plated in 24-well plates at a density of 4×10^5 cells/well in 1 ml of complete medium and incubated for 24 hr to allow in cells to settle. Following a wash with cold serum-free media or PBS, 40 nM radiolabeled peptides in the full medium were given to the cells, which were then incubated at 37 °C for 2 hr. Finally, cells in culture plates were trypsinized and released, and radioactivity in the cells was measured. To determine specific versus nonspecific binding, SK-MES-1 cells were seeded into 12-well plates at a density of 5×10^5 cells/well and incubated with unlabeled peptides at a concentration 500-fold higher than the labeled peptide for 20 min at 37 °C, followed by the addition of the radiolabeled peptide to the wells. These cells were incubated for 2 hr at 37 °C in a humidified incubator.

[3] = Biodistribution in SK-MES-1 xenografted nude mice; assay type: in vivo, female C57 nu/nu mice; settings: female, C57 nu/nu, mouse, in vivo, iv, total radioactivity, SK-MES-1 xenograft nude mice, n=4
Description: (§2) The tumor biodistribution and targeting properties of the radiolabeled peptides were carried out in female C57 nu/nu mice bearing SK-MES-1 (Pasture Institute, North Branch and Amol, Iran). The tumor was grafted by subcutaneous injection of SK-MES-1 cells at a concentration of 4×10^6 cells/mouse into the right front flank of the mice and left to grow over a period of 20 days. The mice were ready for biodistribution when tumor size reached 0.7–1 cm^3 in mean diameter, all mice received intravenous co-injections of (^99mTc) Tc-HYNIC-(Ser)3-J18 peptide 1 or (^99mTc )Tc-HYNIC-(Ser)3-J18 peptide 2 (1 μg in 100 μl buffer) after 1, 2, and 4 hr post-injection, respectively (n=4 mice per group). In order to measure the radiopeptides’ nonspecific uptake of the radiopeptides, one group of four animals was injected with 300 μg of non-labeled peptide in a 50 μl buffer. The mice in the blocking group were euthanized 2 hr after the injection. Mice organ and tissue samples were collected, and radioactivity uptake was calculated as a percentage of the administered dose per gram tissue (%ID/g).

SK-MES-1 tumors = test: Biodistribution in SK-MES-1 xenografted nude mice; assay type: in vivo, female C57 nu/nu mice; settings: SK-MES-1 xenograft nude mice, mean ± SD, n=4
Description: as §2

[4] = test system: SK-MES-1, A-549, SKOV-3 and MCF-7 cells; test: In vitro receptor binding of radiolabeled peptides on four cell lines; parameters: species or system human; settings: 40 nM radiolabeled peptide, 2 hr at 37 °C
Description: as §1

[5] = Biodistribution in normal mice; assay type: in vivo; settings: normal female NMRI mice, i.v. 1 μg in 100 μl (18.5 MBq), mean±SD, n=4
Description: All animal investigations were approved by Mazandaran University of Medical Sciences Research and Ethical Committee in Sari, Iran. Twelve normal female NMRI mice (20–30 g) were randomly divided into three groups of four. 1 μg of (^99mTc) Tc –HYNIC–J18 peptide in 100 μl of buffer (18.5 MBq) was injected into the tail vein. All animals were sacrificed one, four, and twenty-four hours following radiolabeled peptide injection. Mice were euthanized with an appropriate dose of ketamine/xylazine (Sigma, USA) diluted with sterile water (1:3 v/v). Following deep anesthesia, blood was extracted by heart puncture with a 1-mL syringe washed with diluted heparin. Blood, liver, spleen, salivary gland, stomach, kidney, muscle, and bone samples were dissected and weighed, and radioactivity was measured. Except for the intestines, which were computed as a percentage of the injected dose per gram tissue (percent ID/g), the tissue uptake data was calculated as a percentage of the administered dose per total sample.

In the case of `CC(C)C[C@H](NC(=O)[C@H](CO)NC(=O)[C@H](CCCNC(=N)N)NC(=O)[C@H](CO)NC(=O)[C@H](CO)NC(=O)[C@H](CO)NC(=O)c1ccc(NN)nc1)C(=O)N[C@@H](Cc1c[nH]c2ccccc12)C(=O)N[C@@H](CO)C(=O)N[C@@H](CC(=O)O)C(=O)N[C@@H](Cc1ccccc1)C(=O)N[C@@H](Cc1ccc(O)cc1)C(=O)N[C@@H](C)C(=O)N[C@@H](CO)C(=O)N[C@@H](C)C(=O)N[C@@H](CO)C(=O)N[C@@H](CCCNC(=N)N)C(=O)NCC(=O)N1CCC[C@H]1C(=O)O` [Peptide 2, (^99mTc) Tc-HYNIC-(Ser)3-J18 with tricine/EDDA, metal not drawn] (HELM PEPTIDE1{[NNc1ccc(C(=O)[*:2])cn1].S.S.S.R.S.L.W.S.D.F.Y.A.S.A.S.R.G.P}$$$$V2.0; C-terminus assumed), the Kd (A-549 cells) is listed as 4.4 ± 0.8 nM, the Bmax (SK-MES-1 cells [1]; Figure 4, saturation binding, 2 hr at 37 °C, listed as 99mTc-(EDDA/tricine)-(Ser)3-HYNIC-J18) is listed as “(1.9±0.3)·10^4 binding sites/cell” and the “binding affinity for SK-MES-1, in words” value (SK-MES-1 cells [1]; listed as 99mTc-peptide 2) is listed as “high binding affinity; also recorded: good receptor-binding affinity”. The Kd (SK-MES-1 cells [1]; saturation binding, 0.1-50 nM, 2 hr at 37 °C, blocking with 500-fold excess non-labeled peptide, three dishes per concentration, Prism 5 nonlinear regression, listed as 99mTc-HYNIC-(Ser)3-J18 (tricine/EDDA)) was 3.64 ± 0.8 nM, the “reduction of binding by pre-saturation with unlabeled J18 peptide” value (SK-MES-1 cells [2]; 500-fold unlabeled peptide 20 min at 37 °C, then radiolabeled peptide 2 hr at 37 °C) was 7.5 fold and the “specific binding to SK-MES-1, in words” value (SK-MES-1 cells [2]) was “high specificity”. The tissue to tissue ratio at 2 h ([3]; 1 ug, 2 hr, read-out: Tumor/blood ratio) was 2.96, the tissue uptake at 2 h ([3]; 2h-blocked (300 μg non-labeled peptide 0.5 hr before), i.v. 1 μg, mean ± SD, read-out: Tumor uptake) was 0.43 ± 0.05 %ID/g and the “Intestine uptake (with contents)” value (SK-MES-1 tumors; 1 hr, i.v. 1 μg in 100 μl) was 0.78±0.01 percentage of injected dose per whole sample. The “Intestine uptake (with contents)” value (SK-MES-1 tumors; 2h-blocked (300 μg non-labeled peptide 0.5 hr before), i.v. 1 μg) was 0.23±0.09 percentage of injected dose per whole sample, the “Intestine uptake (with contents)” value (SK-MES-1 tumors; 2 hr, i.v. 1 μg in 100 μl) was 0.53±0.11 percentage of injected dose per whole sample and the “Intestine uptake (with contents)” value (SK-MES-1 tumors; 4 hr, i.v. 1 μg in 100 μl) was 0.03±0.01 percentage of injected dose per whole sample. For the same compound, the “cellular affinity, in words” value [4] was “strongest cellular affinity for the SK-MES-1 cell line”, the “Intestine uptake (with contents)” value ([5]; 4 hr) was 3.63±1.80 percentage of injected dose per whole sample and the “Intestine uptake (with contents)” value ([5]; 24 hr) was 0.59±0.29 percentage of injected dose per whole sample.
